This passage reports Kd results from article PMC12888920, “MMP-9 regulates disulphide isomerase activity of TGM2 to enhance fusion glycoprotein-mediated syncytium formation of respiratory syncytial virus” (Protein & Cell, 2025).

For the test, the target named is T1, purified human MMP-9 (human, UniProt P14780 20-707).
T1 construct: human matrix metalloproteinase 9; May be the same protein as MMP-9-6x His; Methods are in the supplementary file; source: purified
In words: BLI; ForteBio Octet; who was immobilised and buffer not told in the text shown; three biological replicates. The conditions noted are these: both partners purified. (In BLI a coated tip is dipped into the sample, and binding shifts an interference pattern.)

Broadly, the Kd is the equilibrium constant for the complex coming apart. Read a high Kd as weaker binding.

T1 sequence (P14780 20-707): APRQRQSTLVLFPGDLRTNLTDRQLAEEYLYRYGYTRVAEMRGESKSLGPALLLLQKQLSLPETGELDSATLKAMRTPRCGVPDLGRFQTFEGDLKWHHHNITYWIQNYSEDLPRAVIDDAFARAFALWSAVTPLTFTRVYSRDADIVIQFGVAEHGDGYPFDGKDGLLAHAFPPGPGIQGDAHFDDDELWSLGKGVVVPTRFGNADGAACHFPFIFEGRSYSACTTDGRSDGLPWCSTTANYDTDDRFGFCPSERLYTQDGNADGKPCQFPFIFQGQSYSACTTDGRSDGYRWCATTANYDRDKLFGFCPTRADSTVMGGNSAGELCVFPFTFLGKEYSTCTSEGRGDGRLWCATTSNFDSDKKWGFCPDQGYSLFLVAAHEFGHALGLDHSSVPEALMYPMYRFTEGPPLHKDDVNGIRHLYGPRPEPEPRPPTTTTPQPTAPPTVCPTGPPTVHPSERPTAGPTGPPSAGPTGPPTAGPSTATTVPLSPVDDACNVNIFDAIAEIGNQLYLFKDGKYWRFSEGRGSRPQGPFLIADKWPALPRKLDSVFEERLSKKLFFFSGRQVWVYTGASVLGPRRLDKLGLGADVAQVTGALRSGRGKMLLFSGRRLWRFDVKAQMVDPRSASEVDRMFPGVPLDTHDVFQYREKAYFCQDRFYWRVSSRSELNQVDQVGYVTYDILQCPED

B1: purified human TGM2 (transglutaminase 2) (enzyme, UniProt P21980 1-687, looked up)
chain: MAEELVLERCDLELETNGRDHHTADLCREKLVVRRGQPFWLTLHFEGRNYEASVDSLTFSVVTGPAPSQEAGTKARFPLRDAVEEGDWTATVVDQQDCTLSLQLTTPANAPIGLYRLSLEASTGYQGSSFVLGHFILLFNAWCPADAVYLDSEEERQEYVLTQQGFIYQGSAKFIKNIPWNFGQFEDGILDICLILLDVNPKFLKNAGRDCSRRSSPVYVGRVVSGMVNCNDDQGVLLGRWDNNYGDGVSPMSWIGSVDILRRWKNHGCQRVKYGQCWVFAAVACTVLRCLGIPTRVVTNYNSAHDQNSNLLIEYFRNEFGEIQGDKSEMIWNFHCWVESWMTRPDLQPGYEGWQALDPTPQEKSEGTYCCGPVPVRAIKEGDLSTKYDAPFVFAEVNADVVDWIQQDDGSVHKSINRSLIVGLKISTKSVGRDEREDITHTYKYPEGSSEEREAFTRANHLNKLAEKEETGMAMRIRVGQSMNMGSDFDVFAHITNNTAEEYVCRLLLCARTVSYNGILGPECGTKYLLNLNLEPFSEKSVPLCILYEKYRDCLTESNLIKVRALLVEPVINSYLLAERDLYLENPEIKIRILGEPKQKRKLVAEVSLQNPLPVALEGCTFTVEGAGLTEEQKTVEIPDPVEAGEEVKVRMDLLPLHMGLHKLVVNFESDKLKAVKGFRNVIIGPA
notes: human transglutaminase 2; the purified protein's band is called full-length TGM2 (100 kDa) in the cleavage assay; The printed 100 kDa for full-length TGM2 is larger than the native protein; also called recombinant TGM2; source: purified
B1 had a Kd of 1980 nM.
